Data taken from patent US20180009871A1 (INTARCIA THERAPEUTICS, published 2018).
Where no end group is shown, it is not given here. [ ]: non-standard residue; d: D form. Aib = CC(C)(N)C(=O)O

Experiments:
[1] = target: human glucagon receptor (GCGR) (human, UniProt P47871 26-477); experiment: cell-based or functional assay
[2] = target: human GLP-1 receptor (GLP-1R) (human, UniProt P43220 24-463); experiment: cell-based or functional assay
Chain of human GLP-1 receptor (GLP-1R) (P43220 24-463): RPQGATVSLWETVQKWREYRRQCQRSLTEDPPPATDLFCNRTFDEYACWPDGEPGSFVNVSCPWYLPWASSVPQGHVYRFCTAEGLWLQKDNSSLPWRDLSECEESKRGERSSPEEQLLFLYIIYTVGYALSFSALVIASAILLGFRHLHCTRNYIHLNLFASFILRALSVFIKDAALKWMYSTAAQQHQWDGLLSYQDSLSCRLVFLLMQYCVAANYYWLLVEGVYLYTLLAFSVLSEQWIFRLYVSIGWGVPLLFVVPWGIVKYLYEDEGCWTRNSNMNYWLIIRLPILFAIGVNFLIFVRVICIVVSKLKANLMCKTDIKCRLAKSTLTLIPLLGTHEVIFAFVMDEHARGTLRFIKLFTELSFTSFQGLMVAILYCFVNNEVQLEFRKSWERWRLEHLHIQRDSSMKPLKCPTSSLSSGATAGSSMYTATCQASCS

B1: Compound A52 (peptide)
peptide: YSHGTFTSDYSKYLDIKRAQEFV[Aib]WLEDEPSSGAPPPS-OH
modifications: N-terminus assumed
SMILES: CC[C@H](C)[C@H](NC(=O)[C@H](CC(=O)O)NC(=O)[C@H](CC(C)C)NC(=O)[C@H](Cc1ccc(O)cc1)NC(=O)[C@H](CCCCN)NC(=O)[C@H](CO)NC(=O)[C@H](Cc1ccc(O)cc1)NC(=O)[C@H](CC(=O)O)NC(=O)[C@H](CO)NC(=O)[C@@H](NC(=O)[C@H](Cc1ccccc1)NC(=O)[C@@H](NC(=O)CNC(=O)[C@H](Cc1c[nH]cn1)NC(=O)[C@H](CO)NC(=O)[C@@H](N)Cc1ccc(O)cc1)[C@@H](C)O)[C@@H](C)O)C(=O)N[C@@H](CCCCN)C(=O)N[C@@H](CCCNC(=N)N)C(=O)N[C@@H](C)C(=O)N[C@@H](CCC(N)=O)C(=O)N[C@@H](CCC(=O)O)C(=O)N[C@@H](Cc1ccccc1)C(=O)N[C@H](C(=O)NC(C)(C)C(=O)N[C@@H](Cc1c[nH]c2ccccc12)C(=O)N[C@@H](CC(C)C)C(=O)N[C@@H](CCC(=O)O)C(=O)N[C@@H](CC(=O)O)C(=O)N[C@@H](CCC(=O)O)C(=O)N1CCC[C@H]1C(=O)N[C@@H](CO)C(=O)N[C@@H](CO)C(=O)NCC(=O)N[C@@H](C)C(=O)N1CCC[C@H]1C(=O)N1CCC[C@H]1C(=O)N1CCC[C@H]1C(=O)N[C@@H](CO)C(=O)O)C(C)C
[1]
  hGCGR pEC50 (cAMP): 12.4 pEC50
[2]
  hGLP1 pEC50 (cAMP): < 9 pEC50

B2: Compound A53 (peptide)
peptide: YSHGTFTSDYSKYLD[Aib]KRAQEFVLWLEDEPSSGAPPPS-OH
modifications: N-terminus assumed
SMILES: CC(C)C[C@H](NC(=O)[C@H](Cc1c[nH]c2ccccc12)NC(=O)[C@H](CC(C)C)NC(=O)[C@@H](NC(=O)[C@H](Cc1ccccc1)NC(=O)[C@H](CCC(=O)O)NC(=O)[C@H](CCC(N)=O)NC(=O)[C@H](C)NC(=O)[C@H](CCCNC(=N)N)NC(=O)[C@H](CCCCN)NC(=O)C(C)(C)NC(=O)[C@H](CC(=O)O)NC(=O)[C@H](CC(C)C)NC(=O)[C@H](Cc1ccc(O)cc1)NC(=O)[C@H](CCCCN)NC(=O)[C@H](CO)NC(=O)[C@H](Cc1ccc(O)cc1)NC(=O)[C@H](CC(=O)O)NC(=O)[C@H](CO)NC(=O)[C@@H](NC(=O)[C@H](Cc1ccccc1)NC(=O)[C@@H](NC(=O)CNC(=O)[C@H](Cc1c[nH]cn1)NC(=O)[C@H](CO)NC(=O)[C@@H](N)Cc1ccc(O)cc1)[C@@H](C)O)[C@@H](C)O)C(C)C)C(=O)N[C@@H](CCC(=O)O)C(=O)N[C@@H](CC(=O)O)C(=O)N[C@@H](CCC(=O)O)C(=O)N1CCC[C@H]1C(=O)N[C@@H](CO)C(=O)N[C@@H](CO)C(=O)NCC(=O)N[C@@H](C)C(=O)N1CCC[C@H]1C(=O)N1CCC[C@H]1C(=O)N1CCC[C@H]1C(=O)N[C@@H](CO)C(=O)O
[1]
  hGCGR pEC50 (cAMP): 11.6 pEC50
[2]
  hGLP1 pEC50 (cAMP): < 9 pEC50

B3: Compound A54 (peptide)
peptide: YSHGTFTSDYSKYLD[Aib]KRAQEFV[Aib]WLEDEPSSKEPPPS-OH
modifications: N-terminus assumed
SMILES: CC(C)C[C@H](NC(=O)[C@H](Cc1ccc(O)cc1)NC(=O)[C@H](CCCCN)NC(=O)[C@H](CO)NC(=O)[C@H](Cc1ccc(O)cc1)NC(=O)[C@H](CC(=O)O)NC(=O)[C@H](CO)NC(=O)[C@@H](NC(=O)[C@H](Cc1ccccc1)NC(=O)[C@@H](NC(=O)CNC(=O)[C@H](Cc1c[nH]cn1)NC(=O)[C@H](CO)NC(=O)[C@@H](N)Cc1ccc(O)cc1)[C@@H](C)O)[C@@H](C)O)C(=O)N[C@@H](CC(=O)O)C(=O)NC(C)(C)C(=O)N[C@@H](CCCCN)C(=O)N[C@@H](CCCNC(=N)N)C(=O)N[C@@H](C)C(=O)N[C@@H](CCC(N)=O)C(=O)N[C@@H](CCC(=O)O)C(=O)N[C@@H](Cc1ccccc1)C(=O)N[C@H](C(=O)NC(C)(C)C(=O)N[C@@H](Cc1c[nH]c2ccccc12)C(=O)N[C@@H](CC(C)C)C(=O)N[C@@H](CCC(=O)O)C(=O)N[C@@H](CC(=O)O)C(=O)N[C@@H](CCC(=O)O)C(=O)N1CCC[C@H]1C(=O)N[C@@H](CO)C(=O)N[C@@H](CO)C(=O)N[C@@H](CCCCN)C(=O)N[C@@H](CCC(=O)O)C(=O)N1CCC[C@H]1C(=O)N1CCC[C@H]1C(=O)N1CCC[C@H]1C(=O)N[C@@H](CO)C(=O)O)C(C)C
[1]
  hGCGR pEC50 (cAMP): 12.4 pEC50
[2]
  hGLP1 pEC50 (cAMP): < 9 pEC50

B4: Compound A51 (peptide)
peptide: YSHGTFTSDYSKYLDLKRAQEFV[Aib]WLEDEPSSGAPPPS-OH
modifications: N-terminus assumed
SMILES: CC(C)C[C@H](NC(=O)[C@H](CC(=O)O)NC(=O)[C@H](CC(C)C)NC(=O)[C@H](Cc1ccc(O)cc1)NC(=O)[C@H](CCCCN)NC(=O)[C@H](CO)NC(=O)[C@H](Cc1ccc(O)cc1)NC(=O)[C@H](CC(=O)O)NC(=O)[C@H](CO)NC(=O)[C@@H](NC(=O)[C@H](Cc1ccccc1)NC(=O)[C@@H](NC(=O)CNC(=O)[C@H](Cc1c[nH]cn1)NC(=O)[C@H](CO)NC(=O)[C@@H](N)Cc1ccc(O)cc1)[C@@H](C)O)[C@@H](C)O)C(=O)N[C@@H](CCCCN)C(=O)N[C@@H](CCCNC(=N)N)C(=O)N[C@@H](C)C(=O)N[C@@H](CCC(N)=O)C(=O)N[C@@H](CCC(=O)O)C(=O)N[C@@H](Cc1ccccc1)C(=O)N[C@H](C(=O)NC(C)(C)C(=O)N[C@@H](Cc1c[nH]c2ccccc12)C(=O)N[C@@H](CC(C)C)C(=O)N[C@@H](CCC(=O)O)C(=O)N[C@@H](CC(=O)O)C(=O)N[C@@H](CCC(=O)O)C(=O)N1CCC[C@H]1C(=O)N[C@@H](CO)C(=O)N[C@@H](CO)C(=O)NCC(=O)N[C@@H](C)C(=O)N1CCC[C@H]1C(=O)N1CCC[C@H]1C(=O)N1CCC[C@H]1C(=O)N[C@@H](CO)C(=O)O)C(C)C
[1]
  hGCGR pEC50 (cAMP): 12.3 pEC50
[2]
  hGLP1 pEC50 (cAMP): < 9 pEC50

B5: Compound A48 (peptide)
peptide: YSHGTFTSDYSKYLD[Aib]KRAQEFV[Aib]WLEDEKRNKNPPPS-OH
modifications: N-terminus assumed
SMILES: CC(C)C[C@H](NC(=O)[C@H](Cc1ccc(O)cc1)NC(=O)[C@H](CCCCN)NC(=O)[C@H](CO)NC(=O)[C@H](Cc1ccc(O)cc1)NC(=O)[C@H](CC(=O)O)NC(=O)[C@H](CO)NC(=O)[C@@H](NC(=O)[C@H](Cc1ccccc1)NC(=O)[C@@H](NC(=O)CNC(=O)[C@H](Cc1c[nH]cn1)NC(=O)[C@H](CO)NC(=O)[C@@H](N)Cc1ccc(O)cc1)[C@@H](C)O)[C@@H](C)O)C(=O)N[C@@H](CC(=O)O)C(=O)NC(C)(C)C(=O)N[C@@H](CCCCN)C(=O)N[C@@H](CCCNC(=N)N)C(=O)N[C@@H](C)C(=O)N[C@@H](CCC(N)=O)C(=O)N[C@@H](CCC(=O)O)C(=O)N[C@@H](Cc1ccccc1)C(=O)N[C@H](C(=O)NC(C)(C)C(=O)N[C@@H](Cc1c[nH]c2ccccc12)C(=O)N[C@@H](CC(C)C)C(=O)N[C@@H](CCC(=O)O)C(=O)N[C@@H](CC(=O)O)C(=O)N[C@@H](CCC(=O)O)C(=O)N[C@@H](CCCCN)C(=O)N[C@@H](CCCNC(=N)N)C(=O)N[C@@H](CC(N)=O)C(=O)N[C@@H](CCCCN)C(=O)N[C@@H](CC(N)=O)C(=O)N1CCC[C@H]1C(=O)N1CCC[C@H]1C(=O)N1CCC[C@H]1C(=O)N[C@@H](CO)C(=O)O)C(C)C
[1]
  hGCGR pEC50 (cAMP): 12.9 pEC50
[2]
  hGLP1 pEC50 (cAMP): < 9 pEC50

B6: Compound A49 (peptide)
peptide: YSHGTFTSDYSKYLD[Aib]KRAQEFV[Aib]WLEDEPRNKNNPPS-OH
modifications: N-terminus assumed
SMILES: CC(C)C[C@H](NC(=O)[C@H](Cc1ccc(O)cc1)NC(=O)[C@H](CCCCN)NC(=O)[C@H](CO)NC(=O)[C@H](Cc1ccc(O)cc1)NC(=O)[C@H](CC(=O)O)NC(=O)[C@H](CO)NC(=O)[C@@H](NC(=O)[C@H](Cc1ccccc1)NC(=O)[C@@H](NC(=O)CNC(=O)[C@H](Cc1c[nH]cn1)NC(=O)[C@H](CO)NC(=O)[C@@H](N)Cc1ccc(O)cc1)[C@@H](C)O)[C@@H](C)O)C(=O)N[C@@H](CC(=O)O)C(=O)NC(C)(C)C(=O)N[C@@H](CCCCN)C(=O)N[C@@H](CCCNC(=N)N)C(=O)N[C@@H](C)C(=O)N[C@@H](CCC(N)=O)C(=O)N[C@@H](CCC(=O)O)C(=O)N[C@@H](Cc1ccccc1)C(=O)N[C@H](C(=O)NC(C)(C)C(=O)N[C@@H](Cc1c[nH]c2ccccc12)C(=O)N[C@@H](CC(C)C)C(=O)N[C@@H](CCC(=O)O)C(=O)N[C@@H](CC(=O)O)C(=O)N[C@@H](CCC(=O)O)C(=O)N1CCC[C@H]1C(=O)N[C@@H](CCCNC(=N)N)C(=O)N[C@@H](CC(N)=O)C(=O)N[C@@H](CCCCN)C(=O)N[C@@H](CC(N)=O)C(=O)N[C@@H](CC(N)=O)C(=O)N1CCC[C@H]1C(=O)N1CCC[C@H]1C(=O)N[C@@H](CO)C(=O)O)C(C)C
[1]
  hGCGR pEC50 (cAMP): 12.4 pEC50
[2]
  hGLP1 pEC50 (cAMP): < 9 pEC50

B7: Compound A50 (peptide)
peptide: YSHGTFTSDYSKYLD[Aib]KRAQEFV[Aib]WLEDEKRNKPPPS-OH
modifications: N-terminus assumed
SMILES: CC(C)C[C@H](NC(=O)[C@H](Cc1ccc(O)cc1)NC(=O)[C@H](CCCCN)NC(=O)[C@H](CO)NC(=O)[C@H](Cc1ccc(O)cc1)NC(=O)[C@H](CC(=O)O)NC(=O)[C@H](CO)NC(=O)[C@@H](NC(=O)[C@H](Cc1ccccc1)NC(=O)[C@@H](NC(=O)CNC(=O)[C@H](Cc1c[nH]cn1)NC(=O)[C@H](CO)NC(=O)[C@@H](N)Cc1ccc(O)cc1)[C@@H](C)O)[C@@H](C)O)C(=O)N[C@@H](CC(=O)O)C(=O)NC(C)(C)C(=O)N[C@@H](CCCCN)C(=O)N[C@@H](CCCNC(=N)N)C(=O)N[C@@H](C)C(=O)N[C@@H](CCC(N)=O)C(=O)N[C@@H](CCC(=O)O)C(=O)N[C@@H](Cc1ccccc1)C(=O)N[C@H](C(=O)NC(C)(C)C(=O)N[C@@H](Cc1c[nH]c2ccccc12)C(=O)N[C@@H](CC(C)C)C(=O)N[C@@H](CCC(=O)O)C(=O)N[C@@H](CC(=O)O)C(=O)N[C@@H](CCC(=O)O)C(=O)N[C@@H](CCCCN)C(=O)N[C@@H](CCCNC(=N)N)C(=O)N[C@@H](CC(N)=O)C(=O)N[C@@H](CCCCN)C(=O)N1CCC[C@H]1C(=O)N1CCC[C@H]1C(=O)N1CCC[C@H]1C(=O)N[C@@H](CO)C(=O)O)C(C)C
[1]
  hGCGR pEC50 (cAMP): 11.5 pEC50
[2]
  hGLP1 pEC50 (cAMP): < 9 pEC50
